B1: CPEB3 Ribozyme (parent)
chain: UAACAGGGGGCCACAGCAGAAGCGUUCACGUCGCAGCCCCUGUCAGAUUCUGGUGAAUCUGCGAAUUCUGCUGUAUAUCUC

Variants of: B1
Assay: self-cleavage, relative activity (ratio to wild type); higher = more cleavage; in vitro, sequencing
Summary of the method: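 After error-prone PCR and barcoding, CPEB3 ribozyme mutant libraries were transcribed with T7 RNA polymerase at 37°C for 5 hours, then given 15 min with DNase I before an EDTA stop, and they cleaved during both steps. Reverse transcription with template switching preceded Illumina sequencing. Relative activity divides a variant's cleaved/total read fraction by the unmutated ribozyme's. At least 5 reads were required per variant, and three batches were averaged.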

| Variant | self-cleavage |
| --- | --- |
| A56U A64G | 0.51 |
| A56U A64U | 0.28 |
| A56U A65G | 0.29 |
| A56U A65U | 0.21 |
| A56U A75G | 0.54 |
| A56U A75U | 0.79 |
| A56U A77C | 0.62 |
| A56U A77G | 0.71 |
| A56U A77U | 0.73 |
| A56U C59A | 0.28 |
| A56U C59G | 0.13 |
| A56U C59U | 0.19 |
| A56U C62U | 0.21 |
| A56U C68U | 0.55 |
| A56U C71A | 0.26 |
| A56U C71G | 0.26 |
| A56U C71U | 0.46 |
| A56U C79A | 1.12 |
| A56U C81A | 1.2 |
| A56U G61A | 0.29 |
| A56U G63A | 0.48 |
| A56U G63C | 0.61 |
| A56U G70A | 0.35 |
| A56U G70U | 0.21 |

| Variant | self-cleavage |
| --- | --- |
| A56U G73A | 1.18 |
| A56U U58A | 0.31 |
| A56U U58C | 0.3 |
| A56U U58G | 0.18 |
| A56U U60A | 0.3 |
| A56U U60C | 0.27 |
| A56U U60G | 0.24 |
| A56U U66A | 0.25 |
| A56U U66C | 0.32 |
| A56U U67A | 0.43 |
| A56U U67C | 0.26 |
| A56U U67G | 0.16 |
| A56U U69A | 0.33 |
| A56U U69C | 0.38 |
| A56U U69G | 0.46 |
| A56U U72A | 0.46 |
| A56U U72C | 0.81 |
| A56U U72G | 0.5 |
| A56U U74A | 1.17 |
| A56U U74C | 1.06 |
| A56U U76A | 0.84 |
| A56U U76C | 0.8 |
| A56U U76G | 0.89 |
| A56U U78A | 0.95 |

| Variant | self-cleavage |
| --- | --- |
| A56U U78C | 0.61 |
| A56U U78G | 0.58 |
| A56U U80A | 1 |
| A56U U80C | 0.83 |
| A57C | 0.48 |
| A57C A64G | 0.34 |
| A57C A64U | 0.44 |
| A57C A65G | 0.17 |
| A57C A75U | 0.58 |
| A57C A77G | 0.45 |
| A57C C62U | 0.14 |
| A57C G61C | 0.16 |
| A57C G63A | 0.58 |
| A57C U58C | 0.3 |
| A57C U60A | 0.14 |
| A57C U66A | 0.2 |
| A57C U66C | 0.16 |
| A57C U67C | 0.27 |
| A57C U78A | 0.4 |
| A57C U78C | 0.66 |
| A57C U80C | 0.67 |
| A57G | 0.96 |
| A57G A64G | 0.81 |
| A57G A64U | 0.36 |

| Variant | self-cleavage |
| --- | --- |
| A57G A65C | 0.15 |
| A57G A65G | 0.37 |
| A57G A65U | 0.32 |
| A57G A75G | 0.74 |
| A57G A75U | 1.01 |
| A57G A77G | 0.87 |
| A57G A77U | 0.9 |
| A57G C59A | 0.2 |
| A57G C59G | 0.21 |
| A57G C59U | 0.83 |
| A57G C62U | 0.33 |
| A57G C68G | 0.4 |
| A57G C68U | 0.77 |
| A57G C71U | 0.32 |
| A57G C79A | 0.73 |
| A57G C79U | 1.1 |
| A57G C81G | 1.2 |
| A57G C81U | 1.13 |
| A57G G61A | 0.59 |
| A57G G61U | 0.64 |
| A57G G63A | 0.84 |
| A57G G70A | 0.49 |
| A57G G70C | 0.22 |
| A57G G73A | 1.25 |

| Variant | self-cleavage |
| --- | --- |
| A57G G73U | 1.15 |
| A57G U58A | 0.28 |
| A57G U58C | 0.33 |
| A57G U58G | 0.22 |
| A57G U60A | 0.4 |
| A57G U60C | 0.42 |
| A57G U60G | 0.26 |
| A57G U66A | 0.37 |
| A57G U66C | 0.4 |
| A57G U66G | 0.53 |
| A57G U67A | 0.45 |
| A57G U67C | 0.35 |
| A57G U67G | 0.38 |
| A57G U69A | 0.54 |
| A57G U69C | 0.48 |
| A57G U69G | 0.72 |
| A57G U72A | 0.62 |
| A57G U72C | 1.05 |
| A57G U72G | 1.01 |
| A57G U74A | 1.2 |
| A57G U74C | 1.15 |
| A57G U74G | 1.23 |
| A57G U76A | 1.01 |
| A57G U76C | 1.01 |

| Variant | self-cleavage |
| --- | --- |
| A57G U76G | 1.08 |
| A57G U78A | 0.97 |
| A57G U78C | 0.83 |
| A57G U78G | 1.12 |
| A57G U80A | 1.06 |
| A57G U80C | 1 |
| A57G U80G | 1.12 |
| A57U | 0.8 |
| A57U A64G | 0.75 |
| A57U A64U | 0.21 |
| A57U A65G | 0.22 |
| A57U A75G | 0.69 |
| A57U A75U | 1.08 |
| A57U A77G | 0.76 |
| A57U A77U | 1.01 |
| A57U C59U | 0.21 |
| A57U C62U | 0.21 |
| A57U C79G | 1.16 |
| A57U G70A | 0.38 |
| A57U G70U | 0.19 |
| A57U U58A | 0.3 |
| A57U U58C | 0.18 |
| A57U U58G | 0.1 |
| A57U U60A | 0.24 |

| Variant | self-cleavage |
| --- | --- |
| A57U U60C | 0.27 |
| A57U U66C | 0.33 |
| A57U U67A | 0.38 |
| A57U U67C | 0.22 |
| A57U U69A | 0.4 |
| A57U U69C | 0.3 |
| A57U U69G | 0.44 |
| A57U U72A | 0.43 |
| A57U U72C | 0.89 |
| A57U U74A | 1.23 |
| A57U U74C | 1.03 |
| A57U U76A | 1.01 |
| A57U U76C | 0.94 |
| A57U U78A | 1.21 |
| A57U U78C | 0.68 |
| A57U U78G | 0.75 |
| A57U U80A | 0.55 |
| A57U U80C | 0.92 |
| U58A | 0.41 |
| U58A A64G | 0.32 |
| U58A A65G | 0.17 |
| U58A A65U | 0.13 |
| U58A A75G | 0.46 |
